Several values for one entry are separate records, joined by “and”; a condition that tells them apart may be missing. Equal entries are not always repeated.
What was measured:
not read = substrate: Oc1ccc2ccccc2c1; assay: not read
[1] = substrate: Oc1ccc2[nH]ccc2c1; assay: (§1) Substrate activity at SULT1A1 (unknown origin) expressed in baculovirus infected Sf9 cells assessed as substrate Km incubated for 15 mins using [35S-]PAPS as sulfate donor by TLC analysis; parameters: species or system Homo sapiens
[2] = substrate: Cc1nc2cc(O)ccc2s1; assay: as §1; parameters: species or system Homo sapiens
[3] = substrate: Oc1ccc2occc2c1; assay: as §1; parameters: species or system Homo sapiens
[4] = substrate: Oc1ccc2nc(-c3ccccc3)sc2c1; assay: as §1; parameters: species or system Homo sapiens
[5] = substrate: Oc1ccc2ccsc2c1; assay: as §1; parameters: species or system Homo sapiens
[6] = substrate: Oc1ccc2sccc2c1; assay: as §1; parameters: species or system Homo sapiens
[7] = substrate: Oc1ccc2ncsc2c1; assay: as §1; parameters: species or system Homo sapiens
[8] = substrate: Oc1ccc2ncoc2c1; assay: as §1; parameters: species or system Homo sapiens
[9] = substrate: Oc1ccc2ccoc2c1; assay: as §1; parameters: species or system Homo sapiens
[10] = substrate: CNc1ccc(-c2nc3cc(O)ccc3s2)cc1; assay: as §1; parameters: species or system Homo sapiens
[11] = substrate: CN(C)c1ccc(-c2nc3cc(O)ccc3s2)cc1; assay: as §1; parameters: species or system Homo sapiens
[12] = substrate: Oc1ccc2[nH]cnc2c1; assay: as §1; parameters: species or system Homo sapiens
[13] = substrate: Cc1nc2ccc(O)cc2s1; assay: as §1; parameters: species or system Homo sapiens
[14] = substrate: Oc1ccc2cc[nH]c2c1; assay: as §1; parameters: species or system Homo sapiens
[15] = substrate: Cc1nc2cc(O)ccc2s1; assay: (§2) Substrate activity at SULT1E1 (unknown origin) expressed in baculovirus infected Sf9 cells assessed as substrate Km incubated for 15 mins using [35S-]PAPS as sulfate donor by TLC analysis; parameters: species or system Homo sapiens
[16] = substrate: COc1ccc(-c2nc3ccc(O)cc3s2)cc1; assay: as §2; parameters: species or system Homo sapiens
[17] = substrate: Oc1ccc2occc2c1; assay: as §2; parameters: species or system Homo sapiens
[18] = substrate: N#Cc1ccc(-c2nc3ccc(O)cc3s2)cc1; assay: as §2; parameters: species or system Homo sapiens
[19] = substrate: Oc1ccc2nc(-c3ccccc3)sc2c1; assay: as §2; parameters: species or system Homo sapiens
[20] = substrate: Oc1ccc2ccsc2c1; assay: as §2; parameters: species or system Homo sapiens
[21] = substrate: Oc1ccc2sccc2c1; assay: as §2; parameters: species or system Homo sapiens
[22] = substrate: Oc1ccc2ncsc2c1; assay: as §2; parameters: species or system Homo sapiens
[23] = substrate: CC(=O)Nc1ccc(-c2nc3ccc(O)cc3s2)cc1; assay: as §2; parameters: species or system Homo sapiens
[24] = substrate: Oc1ccc2ncoc2c1; assay: as §2; parameters: species or system Homo sapiens
[25] = substrate: Oc1ccc2nc(-c3ccc(F)cc3)sc2c1; assay: as §2; parameters: species or system Homo sapiens
[26] = substrate: Nc1ccc(-c2nc3ccc(O)cc3s2)cc1; assay: as §2; parameters: species or system Homo sapiens
[27] = substrate: CN(C)c1ccc(-c2nc3ccc(O)cc3s2)cc1; assay: as §2; parameters: species or system Homo sapiens
[28] = substrate: Oc1ccc2nc(-c3ccc(I)cc3)sc2c1; assay: as §2; parameters: species or system Homo sapiens
[29] = substrate: Oc1ccc2ccoc2c1; assay: as §2; parameters: species or system Homo sapiens
[30] = substrate: CNc1ccc(-c2nc3cc(O)ccc3s2)cc1; assay: as §2; parameters: species or system Homo sapiens
[31] = substrate: CS(=O)(=O)c1ccc(-c2nc3ccc(O)cc3s2)cc1; assay: as §2; parameters: species or system Homo sapiens
[32] = substrate: CN(C)c1ccc(-c2nc3cc(O)ccc3s2)cc1; assay: as §2; parameters: species or system Homo sapiens
[33] = substrate: O=[N+]([O-])c1ccc(-c2nc3ccc(O)cc3s2)cc1; assay: as §2; parameters: species or system Homo sapiens
[34] = substrate: Cc1nc2ccc(O)cc2s1; assay: as §2; parameters: species or system Homo sapiens
[35] = substrate: CNc1ccc(-c2nc3ccc(O)cc3s2)cc1; assay: as §2; parameters: species or system Homo sapiens
[36] = substrate: Oc1ccc2[nH]ccc2c1; assay: (§3) Substrate activity at SULT1A3 (unknown origin) expressed in baculovirus infected Sf9 cells assessed as substrate Km incubated for 15 mins using [35S-]PAPS as sulfate donor by TLC analysis; parameters: species or system Homo sapiens
[37] = substrate: Cc1nc2cc(O)ccc2s1; assay: as §3; parameters: species or system Homo sapiens
[38] = substrate: Oc1ccc2occc2c1; assay: as §3; parameters: species or system Homo sapiens
[39] = substrate: Oc1ccc2ccsc2c1; assay: as §3; parameters: species or system Homo sapiens
[40] = substrate: Oc1ccc2sccc2c1; assay: as §3; parameters: species or system Homo sapiens
[41] = substrate: Oc1ccc2ncsc2c1; assay: as §3; parameters: species or system Homo sapiens
[42] = substrate: Oc1ccc2ncoc2c1; assay: as §3; parameters: species or system Homo sapiens
[43] = substrate: Oc1ccc2ccoc2c1; assay: as §3; parameters: species or system Homo sapiens
[44] = substrate: Oc1ccc2cc[nH]c2c1; assay: as §3; parameters: species or system Homo sapiens

B1: Sulfotransferase 1A1 (Homo sapiens) (protein)
chain: MELIQDTSRPPLEYVKGVPLIKYFAEALGPLQSFQARPDDLLISTYPKSGTTWVSQILDMIYQGGDLEKCHRAPIFMRVPFLEFKAPGIPSGMETLKDTPAPRLLKTHLPLALLPQTLLDQKVKVVYVARNAKDVAVSYYHFYHMAKVHPEPGTWDSFLEKFMVGEVSYGSWYQHVQEWWELSRTHPVLYLFYEDMKENPKREIQKILEFVGRSLPEETVDFVVQHTSFKEMKKNPMTNYTTVPQEFMDHSISPFMRKGMAGDWKTTFTVAQNERFDADYAEKMAGCSLSFRSEL
B1 was tested, and the Km (not read) was 0.17 µM, the Vmax (not read) was 0.0146 µmol/min/mg and the Km [1] was 6.62 µM. For the same protein, the Vmax [1] was 0.0128 µmol/min/mg, the Km [2] was 5.9 µM and the Vmax [2] was 0.0193 µmol/min/mg. It also gave a Km [3] of 0.62 µM, a Vmax [3] of 0.00987 µmol/min/mg and a Km [4] of 0.045 µM. It also gave a Vmax [4] of 0.00525 µmol/min/mg, a Km [5] of 0.08 µM and a Vmax [5] of 0.00978 µmol/min/mg. It also gave a Km [6] of 0.14 µM, a Vmax [6] of 0.0112 µmol/min/mg and a Km [7] of 2.08 µM. For the same protein, the Vmax [7] was 0.0103 µmol/min/mg, the Km [8] was 5.5 µM and the Vmax [8] was 0.0132 µmol/min/mg. It also gave a Km [9] of 0.18 µM, a Vmax [9] of 0.0265 µmol/min/mg and a Km [10] of 0.012 µM. It also gave a Vmax [10] of 0.0039 µmol/min/mg, a Km [11] of 0.04 µM and a Vmax [11] of 0.011 µmol/min/mg. It also gave a Km [12] of 19.3 µM, a Vmax [12] of 0.0085 µmol/min/mg and a Km [13] of 6.2 µM. It also gave a Vmax [13] of 0.0103 µmol/min/mg, a Km [14] of 0.23 µM and a Vmax [14] of 0.0203 µmol/min/mg.

B2: Sulfotransferase 2A1 (Homo sapiens) (protein)
chain: MSDDFLWFEGIAFPTMGFRSETLRKVRDEFVIRDEDVIILTYPKSGTNWLAEILCLMHSKGDAKWIQSVPIWERSPWVESEIGYTALSETESPRLFSSHLPIQLFPKSFFSSKAKVIYLMRNPRDVLVSGYFFWKNMKFIKKPKSWEEYFEWFCQGTVLYGSWFDHIHGWMPMREEKNFLLLSYEELKQDTGRTIEKICQFLGKTLEPEELNLILKNSSFQSMKENKMSNYSLLSVDYVVDKAQLLRKGVSGDWKNHFTVAQAEDFDKLFQEKMADLPRELFPWE
B2 was tested, and the Km (not read) was 254 µM and the Vmax (not read) was 0.00019 µmol/min/mg.

B3: Sulfotransferase 1E1 (Homo sapiens) (protein)
chain: MNSELDYYEKFEEVHGILMYKDFVKYWDNVEAFQARPDDLVIATYPKSGTTWVSEIVYMIYKEGDVEKCKEDVIFNRIPFLECRKENLMNGVKQLDEMNSPRIVKTHLPPELLPASFWEKDCKIIYLCRNAKDVAVSFYYFFLMVAGHPNPGSFPEFVEKFMQGQVPYGSWYKHVKSWWEKGKSPRVLFLFYEDLKEDIRKEVIKLIHFLERKPSEELVDRIIHHTSFQEMKNNPSTNYTTLPDEIMNQKLSPFMRKGITGDWKNHFTVALNEKFDKHYEQQMKESTLKFRTEI
With B3 the Vmax (not read) was 0.00339 µmol/min/mg and 0.00486 µmol/min/mg, the Km [15] was 15.9 µM and the Vmax [15] was 0.0047 µmol/min/mg. For the same protein, the Km [16] was 0.9 µM, the Vmax [16] was 0.00197 µmol/min/mg and the Km [17] was 177 µM. It also gave a Vmax [17] of 0.00179 µmol/min/mg, a Km [18] of 0.25 µM and a Vmax [18] of 0.00433 µmol/min/mg. The Km [19] was 0.99 µM, the Vmax [19] was 0.00318 µmol/min/mg and the Km [20] was 11.5 µM. The Vmax [20] was 0.00287 µmol/min/mg, the Km [21] was 38 µM and the Vmax [21] was 0.00291 µmol/min/mg. It also gave a Km [22] of 61.3 µM, a Vmax [22] of 0.0023 µmol/min/mg and a Km [23] of 2.36 µM. For the same protein, the Vmax [23] was 0.00204 µmol/min/mg, the Km [24] was 525 µM and the Vmax [24] was 0.0033 µmol/min/mg. The Km [25] was 0.92 µM, the Vmax [25] was 0.00416 µmol/min/mg and the Km [26] was 1.63 µM. It also gave a Vmax [26] of 0.00278 µmol/min/mg, a Km [27] of 1.33 µM and a Vmax [27] of 0.00149 µmol/min/mg. The Km [28] was 0.52 µM, the Vmax [28] was 0.00295 µmol/min/mg and the Km [29] was 90.9 µM. For the same protein, the Vmax [29] was 0.00272 µmol/min/mg, the Km [30] was 1.31 µM and the Vmax [30] was 0.00182 µmol/min/mg. For the same protein, the Km [31] was 1.32 µM, the Vmax [31] was 0.00357 µmol/min/mg and the Km [32] was 0.39 µM. For the same protein, the Vmax [32] was 0.00098 µmol/min/mg, the Km [33] was 0.12 µM and the Vmax [33] was 0.00343 µmol/min/mg. The Km [34] was 6.96 µM, the Vmax [34] was 0.00329 µmol/min/mg and the Km [35] was 1.6 µM. It also gave a Vmax [35] of 0.0021 µmol/min/mg, a Km [36] of 575 µM and a Vmax [36] of 0.00366 µmol/min/mg. It also gave a Km [37] of 1040 µM, a Vmax [37] of 0.0101 µmol/min/mg and a Km [38] of 385 µM. For the same protein, the Vmax [38] was 0.00834 µmol/min/mg, the Km [39] was 157 µM and the Vmax [39] was 0.00982 µmol/min/mg. For the same protein, the Km [40] was 251 µM, the Vmax [40] was 0.00612 µmol/min/mg and the Km [41] was 280 µM. It also gave a Vmax [41] of 0.00809 µmol/min/mg, a Km [42] of 1070 µM and a Vmax [42] of 0.0115 µmol/min/mg. It also gave a Km [43] of 377 µM, a Vmax [43] of 0.00888 µmol/min/mg and a Km [44] of 2710 µM. It also gave a Vmax [44] of 0.0195 µmol/min/mg.

From ChEMBL document CHEMBL4482315, “In vivo imaging of sulfotransferases” (2013)
